Measurements from the supplement of paper PMC10567573.

B1: KRT71 (parent)
chain: ELRNVQDVVEDYKKRYEEEINKRT
B2: RHOBTB3 (parent)
chain: QLQSMPSRELASMNLDIVDLLKKA

Variants of: B1
Assay: protein stability index of a GFP-peptide fusion (GPS, HEK-293T) (PSI 1-6); higher = more stable
Settings: c terminus: a fixed tail appended
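Note: lentivirally expressed fusions sorted by FACS into six bins by GFP to DsRed ratio, PSI derived from sequencing read proportions per bin multiplied by bin number.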

| Variant | protein stability index |
| --- | --- |
| ELRNVQDVVEDYKKRYEEEINKPT | 3.56 |
| ELRNVQDVVEDYKKRYEEEINKVT | 3.93 |
| ELRNVQDVVEDYKKRYEEEINKGT | 4.1 |
| ELRNVQDVVEDYKKRYEEEINKYT | 3.98 |
| ELRNVQDVVEDYKKRYEEEINKKT | 4.2 |
| ELRNVQDVVEDYKKRYEEEINKHT | 4.09 |
| ELRNVQDVVEDYKKRYEEEINKRM | 3.54 |
| ELRNVQDVVEDYKKRYEEEINKRE | 4.57 |
| ELRNVQDVVEDYKKRYEEEINKRF | 2.85 |
| ELRNVQDVVEDYKKRYEEEINKRN | 3.14 |
| ELRNVQDVVEDYKKRYEEEINKRA | 3.08 |
| ELRNVQDVVEDYKKRYEEEINKRP | 4.39 |
| ELRNVQDVVEDYKKRYEEEINKRL | 3.58 |
| ELRNVQDVVEDYKKRYEEEINKRV | 3.69 |
| ELRNVQDVVEDYKKRYEEEINKRR | 4.41 |
| ELRNVQDVVEDYKKRYEEEINKRI | 4.02 |
| ELRNVQDVVEDYKKRYEEEINKRG | 3.94 |
| ELRNVQDVVEDYKKRYEEEINKRW | 3.62 |
| ELRNVQDVVEDYKKRYEEEINKRS | 3.4 |
| ELRNVQDVVEDYKKRYEEEINKRQ | 4.56 |

| Variant | protein stability index |
| --- | --- |
| ELRNVQDVVEDYKKRYEEEINKRY | 3.18 |
| ELRNVQDVVEDYKKRYEEEINKRD | 4.64 |
| ELRNVQDVVEDYKKRYEEEINKRK | 4.43 |
| ELRNVQDVVEDYKKRYEEEINPRT | 3.47 |
| ELRNVQDVVEDYKKRYEEEINMRT | 3.92 |
| ELRNVQDVVEDYKKRYEEEINRRT | 4.21 |
| ELRNVQDVVEDYKKRYEEEINHRT | 3.68 |
| ELRNVQDVVEDYKKRYEEEINTRT | 4.15 |
| ELRNVQDVVEDYKKRYEEEINART | 3.74 |
| ELRNVQDVVEDYKKRYEEEINQRT | 4.35 |
| ELRNVQDVVEDYKKRYEEEINNRT | 4.11 |
| ELRNVQDVVEDYKKRYEEEINIRT | 3.28 |
| ELRNVQDVVEDYKKRYEEEINWRT | 3.9 |
| ELRNVQDVVEDYKKRYEEEINCRT | 4.19 |
| ELRNVQDVVEDYKKRYEEEINERT | 3.43 |
| ELRNVQDVVEDYKKRYEEEINLRT | 3.28 |
| ELRNVQDVVEDYKKRYEEEINGRT | 3.27 |
| ELRNVQDVVEDYKKRYEEEINDRT | 3.57 |
| ELRNVQDVVEDYKKRYEEEINYRT | 3.43 |
| ELRNVQDVVEDYKKRYEEEINFRT | 4.47 |

Variants of: B2
Assay: as above
Settings: c terminus: a fixed tail appended

| Variant | protein stability index |
| --- | --- |
| QLQFMPSRELASMNLDIVDLLKKA | 3.19 |
| QLQAMPSRELASMNLDIVDLLKKA | 3 |
| QLQEMPSRELASMNLDIVDLLKKA | 4.83 |
| QLQDMPSRELASMNLDIVDLLKKA | 3.82 |
| QLQCMPSRELASMNLDIVDLLKKA | 3.54 |
| QCQSMPSRELASMNLDIVDLLKKA | 4.45 |
| QPQSMPSRELASMNLDIVDLLKKA | 4.72 |
| QAQSMPSRELASMNLDIVDLLKKA | 3.21 |
| QEQSMPSRELASMNLDIVDLLKKA | 4.29 |
| QQQSMPSRELASMNLDIVDLLKKA | 3.78 |
| QIQSMPSRELASMNLDIVDLLKKA | 3.16 |
| QRQSMPSRELASMNLDIVDLLKKA | 3.47 |
| QKQSMPSRELASMNLDIVDLLKKA | 3.18 |
| QMQSMPSRELASMNLDIVDLLKKA | 3.83 |
| QFQSMPSRELASMNLDIVDLLKKA | 3.04 |
| QDQSMPSRELASMNLDIVDLLKKA | 4 |
| QYQSMPSRELASMNLDIVDLLKKA | 4.34 |
| QVQSMPSRELASMNLDIVDLLKKA | 2.77 |
| QWQSMPSRELASMNLDIVDLLKKA | 3.31 |
| QTQSMPSRELASMNLDIVDLLKKA | 3.55 |
| QNQSMPSRELASMNLDIVDLLKKA | 3.71 |
| QLPSMPSRELASMNLDIVDLLKKA | 4.39 |
| QLLSMPSRELASMNLDIVDLLKKA | 2.68 |
| QLYSMPSRELASMNLDIVDLLKKA | 2.75 |
| QLTSMPSRELASMNLDIVDLLKKA | 3.38 |
| QLISMPSRELASMNLDIVDLLKKA | 3.18 |
| QLDSMPSRELASMNLDIVDLLKKA | 3.5 |

| Variant | protein stability index |
| --- | --- |
| QLESMPSRELASMNLDIVDLLKKA | 3.7 |
| QLWSMPSRELASMNLDIVDLLKKA | 2.48 |
| QLMSMPSRELASMNLDIVDLLKKA | 3.35 |
| QLRSMPSRELASMNLDIVDLLKKA | 4.02 |
| QLSSMPSRELASMNLDIVDLLKKA | 3.44 |
| QLNSMPSRELASMNLDIVDLLKKA | 2.56 |
| QLVSMPSRELASMNLDIVDLLKKA | 2.98 |
| QLGSMPSRELASMNLDIVDLLKKA | 3.85 |
| QLFSMPSRELASMNLDIVDLLKKA | 2.62 |
| LLQSMPSRELASMNLDIVDLLKKA | 2.55 |
| ELQSMPSRELASMNLDIVDLLKKA | 3.01 |
| YLQSMPSRELASMNLDIVDLLKKA | 2.98 |
| RLQSMPSRELASMNLDIVDLLKKA | 3.72 |
| NLQSMPSRELASMNLDIVDLLKKA | 3.65 |
| VLQSMPSRELASMNLDIVDLLKKA | 2.98 |
| TLQSMPSRELASMNLDIVDLLKKA | 3.66 |
| PLQSMPSRELASMNLDIVDLLKKA | 4.72 |
| WLQSMPSRELASMNLDIVDLLKKA | 2.62 |
| ALQSMPSRELASMNLDIVDLLKKA | 3.43 |
| KLQSMPSRELASMNLDIVDLLKKA | 4.12 |
| GLQSMPSRELASMNLDIVDLLKKA | 3.51 |
| MLQSMPSRELASMNLDIVDLLKKA | 3.38 |
| ILQSMPSRELASMNLDIVDLLKKA | 2.71 |
| SLQSMPSRELASMNLDIVDLLKKA | 2.75 |
| FLQSMPSRELASMNLDIVDLLKKA | 2.95 |
| CLQSMPSRELASMNLDIVDLLKKA | 2.86 |
| HLQSMPSRELASMNLDIVDLLKKA | 2.92 |
